Kd data for 19 molecules are collected here from the FLAb antibody collection (doi:10.1101/2023.12.08.570889).

Sequences and labels used below:
B1: unnamed (protein)
chain 1: QVQLVQSGAEVKKPGASVKVSCKASGYIFSNYWIQWVRQAPGQGLEWMGEILPGSGSTEYTENFKDRVTMTRDTSTSTVYMELSSLRSEDTAVYYCARLYYGDTPIIYFDYWGQGTLVTVSS
chain 2: DIQMTQSPSSLSASVGDRVTITCGASENIYGALNWYQQKPGKAPKLLIYGATNLADGVPSRFSGSGSGTDFTLTISSLQPEDFATYYCQNVLNTPLTFGQGTKVEIK
B2: unnamed (protein)
chain 1: B1 chain 1 with L99H, I106D
chain 2: B1 chain 2
B3: unnamed (protein)
chain 1: B1 chain 1 with L99Y, Y100E
chain 2: B1 chain 2
B4: unnamed (protein)
chain 1: B1 chain 1 with L99Y, I106Y
chain 2: B1 chain 2
B5: unnamed (protein)
chain 1: B1 chain 1 with I28T, S30T, N31S, L52H, S57Y, L99Y, Y100R
chain 2: B1 chain 2
B6: unnamed (protein)
chain 1: B1 chain 1 with I28T, S30T, N31S, L52H, S57E, L99Y, Y100R
chain 2: B1 chain 2
B7: unnamed (protein)
chain 1: B1 chain 1 with I28T, S30T, N31S, L52K, S57Y, L99Y, Y100R
chain 2: B1 chain 2
B8: unnamed (protein)
chain 1: B1 chain 1 with I28T, S30T, N31S, L52Q, S57Y, L99Y, Y100R
chain 2: B1 chain 2
B9: unnamed (protein)
chain 1: B1 chain 1 with Y100R, I106Y
chain 2: B1 chain 2
B10: unnamed (protein)
chain 1: B1 chain 1 with I28T, S30T, N31S, L52H, S57Y, L99Y, I106Y
chain 2: B1 chain 2
B11: unnamed (protein)
chain 1: B1 chain 1 with I28T, S30T, N31S, L52H, S57Y, L99Y, Y100R, I106F
chain 2: B1 chain 2
B12: unnamed (protein)
chain 1: B1 chain 1 with I28T, S30T, N31S, L52H, S57Y, L99Y, Y100R, I106D
chain 2: B1 chain 2
B13: unnamed (protein)
chain 1: B1 chain 1 with I28T, S30T, N31S, L52H, S57E, L99Y, Y100R, I106Y
chain 2: B1 chain 2
B14: unnamed (protein)
chain 1: B1 chain 1 with L99Y, Y100E, I106Y
chain 2: B1 chain 2
B15: unnamed (protein)
chain 1: B1 chain 1 with L99Y
chain 2: B1 chain 2
B16: unnamed (protein)
chain 1: B1 chain 1 with I28T, S30T, N31S, L52H, S57Y, Y100R
chain 2: B1 chain 2
B17: unnamed (protein)
chain 1: B1 chain 1 with I28T, S30T, N31S, L52K, S57Y, L99H, Y100E
chain 2: B1 chain 2
B18: unnamed (protein)
chain 1: EVQLLESGGGLVQPGGSLRLSCAASGFTFSQYGMDWVRQAPGKGLEWVSGIGPSGGSTVYADSVKGRFTISRDNSKNTLYLQMNSLRAEDTAVYYCTRDGPWYYYGFDVWGQGTTVTVSS
chain 2: DIQMTQSPSSLSASVGDRVTITCQASQDISNYLNWYQQKPGKAPKLLIYDASNLETGVPSRFSGSGSGTDFTFTISSLQPEDIATYYCQQADSFPVTFGGGTKVEIK
B19: unnamed (protein)
chain 1: B18 chain 1 with D99G, W102S, G106A
chain 2: B18 chain 2

Where a chain is given by its changes, count along the chain named.

In the first test the target is C5, P01031. Briefly: Kd (SPR).
By Kd is commonly meant the equilibrium constant for the complex coming apart. For the molecule B1, the Kd came out at 324 nM. In turn, B2 came in with a Kd of 1700 nM. Compared with the last molecule, the Kd is about 5.2-fold higher.

Molecule B3 displayed a Kd of 275 nM. Molecule B4 yielded a Kd of 127 nM. With B5, the Kd was determined as 2300 nM. The molecule B6 displayed a Kd of 251 nM. Turning to B7, the Kd is 507 nM. B8 gave a Kd of 622 nM. The Kd values of the last two molecules are within 1.5-fold of each other. As for B9, the Kd worked out at 2510 nM. On the same count and under the same terms, under B10 stands 267 nM; under B11, 1190 nM. The molecule B12 displayed a Kd of 597 nM. This Kd lies about 2-fold lower than the previous one. B13: the Kd came to 399 nM. As to B14, the Kd was 915 nM. On to B15, for which the Kd was 126 nM. Turning to B16, the dissociation constant (Kd) is 3600 nM.

For the molecule B17, the Kd came to 293 nM.

The target of another test is FXI. As to the kind of experiment: Kd (SPR).
Turning to B18, the Kd is 46 nM. In other words, the double-digit nanomolar range.

In turn, B19 had a Kd of 1370 nM.
